Results as given in article PMC7619190 (2026).
Where no end group is shown, it is not given here. [ ]: non-standard residue; d: D form. pY = N[C@@H](Cc1ccc(OP(=O)(O)O)cc1)C(=O)O

Target: human SRC SH2 domain (Gln147-Lys252), wild type (human, UniProt P12931-1 147-252)
Assay: ITC; SH2 pretreated with 1 mM TCEP

B1: optimized SRC binding phosphopeptide (EPQpYEEIP) (peptide)
peptide: EPQ[pY]EEIP
Question: How did the Kd turn out when B1 was run?
Answer: 0.293 µM
